A short description of the data set: label from the status in PepcDB records.
For the sequence “MDALQLLTWSLILYLFASLASLFLLGLDRLAIKLSGITSLVGGVIGIISGITQLHAGVTLVARFAPPFEFADLTLRMDSLSAFMVLVISLLVVVCSLYSLTYMREYEGKGAAAMGFFMNIFIASMVALLVMDNAFWFIVLFEMMSLSSWFLVIARQDKTSINAGMLYFFIAHAGSVLIMIAFLLMGRESGSLDFASFRTLSLSPGLASAVFLLAFFGFGAKAGMMPLHSWLPRAHPAAPSHASALMSGVMVKIGIFGILKVAMDLLAQTGLPLWWGILVMAIGAISALLGVLYALAEQDIKRLLAWSTVENVGIILLAVGVAMVGLSLHDPLLTVVGLLGALFHLLNHALFKGLLFLGAGAIISRLHTHDMEKMGALAKRMPWTAAACLIGCLAISAIPPLNGFISEWYTWQSLFSLSRVEAVALQLAGPIAMVMLAVTGGLAVMCFVKMYGITFCGAPRSTHAEEAQEVPNTMIVAMLLLAALCVLIALSASWLAPKIMHIAHAFTNTPPATVASGIALVPGTFHTQVTPSLLLLLLLAMPLLPGLYWLWCRSRRAAFRRTGDAWACGYGWENAMAPSGNGVMQPLRVVFSALFRLRQQLDPTLRLNKGLAHVTARAQSTEPFWDERVIRPIVSATQRLAKEIQHLQSGDFRLYCLYVVAALVVLLIAIAV”, the protein production result is reported as “failed”.

Consider “MASLWFGLIASSALVIGAFVGVRFELPKRLLAILLSFAAGSLITALAFELFEDAYEQGGIVRAALGLLAGAIVFTALSALLDRWAQPGGKSTTKAADEIQGSPKLDTDAAASDKAATSASTRGAAGMALLAAVTLDGVPENLALGISLGEGSGGLALLAAIFVSNLPEALVGASSMKSQGRKAGPIMLLWSVCAVLLVAAVVLGAGPLSSAEPATISLPLAFAAGAVIASLADTLMPEAYEHGGPAVALSTAAGFVLSFTLSLA”, for which the protein production entry is recorded as “failed”.

On to “MDKRIDLTEGKITSNLIKLSIPIMATSFIQMAYNMADMIWVGRIGSNAVAAVGTAGFFPWLGMAFVMISKVGAEIKVAQSLGRNDIDSTKDYIKSAFQINIILAIIYSIILLLFNSQLIGFFDLGDAEVIKMAKTYLIAVALGMIFNFLNPVFTAVFTGSGDSRIPFIANTIGLIFNIVFDPILIFGIGIFPEMGVLGAALATVLAQVIVTVTFLYIMIKSKAEYLKINILSGIKINCMKTLFHIGLPAALQSGLFTVFSMFIGKIVAVFGPVPIAVQKVGSQVEAIAWMTAGGISTALSTFVGQNYGAGKLKRIVKGFNITMIISLIVGVFASLVLIFFGEEIFRIFIPEAQAIEQGTVYLKILGYCQILVCVEITTTGAFNGLGRTYIPSIISILLTGARIPMAYIMCKPEFLGLEGIWWAISITGALKGVVVYAIYRYLYKKNKLFKVYKDENGEECISI”, for which the protein production result is listed as “failed”.

As for “MGWQTLKQQSVPARKRLLYLHIPFCATHCTFCGFYQNKLRDDSTATYTRYLLQELAMEADSPLHQSAPIHAVYFGGGTPTALAADELSQIIRAIRTSLPLAPDCEITVEGRAMDFDDERIDACLDAGANRFSIGIQTFDTRIRQRMARTSDKQQSIRFLERLCGRDRAAVVCDLMFGLPGQTPEIWREDLAIVSDLPLDGVDLYALNLLPTTPLAKAAENQRVALPDVVARRDFYRTGAAFLADSGWHQLSNSHWARTTRERNLYNLLIKQGADCLAMGSGAGGNINGQAYMMERSLERYYQQIDQGQKPIMMMTPASSTGPWQHQLQAGIEVGRIKLPQLTQHARELQPLLSQWHQAGLTCDDSTCLRLTNDGRFWANNLMQALQQIIPQLNAEEHAHLEHHHHHH”, the protein production result is recorded as “failed”.

With “MVQSLAKQVIHQAVEVNAQDIYIIPKGDCYELYMRIDDERRFIDVFEFNRMASLISHFKFVAGMNVGEKRRSQLGSCDYELSEGRLVSLRLSSVGDYRGQESLVIRILY”, the protein production result is given as “failed”.

Turning to “MSNGTPQKTKLHFPHTYALIFFIIILAALASYFIPSGEFKRVEEDGQTVIVQGSYKQTDAGPVGFFEMFKAIPEGMIQSADIIFYIFLIGGAFGIIHQTGMIRAGVHVLVQRLKKRGFLLIPVTMFVFSIGGATIGLSEETIIFIPIGIAVARALGYDSMTGLAMISLGAAAGFTGGMLNPFTVGIAQTIAEVPVFSAFGYRLAVYAAMLGFSIFYVMRYAQQVKAHPNTGLMYGSETEINEETAAGHADLSFTGRHGLVLLITALGFGINMFGVFQWGWFLSELSAGFLIIGFAAGLAGGRGINNTFHSFVDGMKQVVYGALIVGFARAIVIVLENGHIIDTIINSLASAISSLPNEISAIGMFAVQIAINTFIPSGSGQAATTMPLMAPLADLLGFERQIAVFAYQYGDGITNSIIPTSGVLLASLSIAGVPYERWVKFVWKLIAGWIIIGAAAIVIAMIIGIK”, the protein production entry is “failed”.

Values taken from a protein production outcome set (Wang et al. 2014).
